Laboratory results taken from patent US20090030181A1 (KOREA RESEARCH INSTITUTE OF BIOSCIENCE AND BIOTECHNOLOGY, published 2009).
Where no end group is shown, it is not given here.

Target: T1, human mdm2 N-terminal domain, mdm2(3-109) (human, UniProt Q00987 3-109)
T1 construct: Expressed in E. coli BL21(DE3) from a pLM1 vector; Uniformly 15N-labelled (or 15N,13C-labelled) where it is the observed species in NMR; unlabelled when used as titrant and when immobilised on the CM5 chip
Assay: SPR (BIAcore 2000), mdm2(3-109) amine-coupled on CM5, peptide injected at 1.5625-50 µM, equilibrium fit

T1 sequence (Q00987 3-109 limits assumed): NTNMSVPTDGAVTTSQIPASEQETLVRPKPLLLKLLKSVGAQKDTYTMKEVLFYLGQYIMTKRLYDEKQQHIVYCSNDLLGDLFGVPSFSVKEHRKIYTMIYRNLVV

B1: native p53 TAD(49-54) peptide (peptide)
peptide: DIEQWF-NH2
notes: Synthetic, solid phase; also called p53 (49-54); p53(49-54) peptide
- Kd: 25 µM
